From US5304480

Columns and labels:
[1] = system: XhoI restriction endonuclease (Xanthomonas campestris pv. holcicola ATCC 13461); test: cleavage_in_vitro; conditions: 50 mM Tris HCl pH 8.1, 10 mM MgCl2, 50 mM NaCl, 37 C; no activity detected from E. coli DH10B extracts
[2] = system: XhoII restriction endonuclease (Xanthomonas campestris pv. holcicola ATCC 13461); test: cleavage_in_vitro; conditions: 20 mM Tris HCl pH 7.4, 10 mM MgCl2, 37 C; no activity detected from E. coli DH10B extracts

| Substance | activity (units per gram of cells) [1] | activity (units per gram of cells) [2] |
| --- | --- | --- |
| Adenovirus-2 DNA (XhoI sites) | 100000 |  |
| phage lambda DNA (XhoII/BstYI sites) |  | 10000 |
